The supplement of paper PMC11136658

Tested on: peptide library, one residue held at a place counted from the Y acceptor
Assay: relative phosphorylation of the sub-library (ratio to the mean residue at this position); higher = residue favoured
Method in brief: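 Biotinylated Tyr-centred peptide library mixtures, each fixing one residue at one position from −5 to +5, were incubated with purified recombinant kinases in 384-well plates for 90 min with 50 μM ATP plus γ-32P-ATP. Streptavidin membranes captured the peptides, which were rinsed and quantified by phosphorimaging and ImageQuant. At each position, intensities were divided by the sum of the 18 randomized residues (16 for the Ser/Thr-free library) and multiplied by that number. Each value is phosphorylation relative to the mean randomized residue.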

TEC, construct: Full length, human, sequence (P42680 whole entry, looked up): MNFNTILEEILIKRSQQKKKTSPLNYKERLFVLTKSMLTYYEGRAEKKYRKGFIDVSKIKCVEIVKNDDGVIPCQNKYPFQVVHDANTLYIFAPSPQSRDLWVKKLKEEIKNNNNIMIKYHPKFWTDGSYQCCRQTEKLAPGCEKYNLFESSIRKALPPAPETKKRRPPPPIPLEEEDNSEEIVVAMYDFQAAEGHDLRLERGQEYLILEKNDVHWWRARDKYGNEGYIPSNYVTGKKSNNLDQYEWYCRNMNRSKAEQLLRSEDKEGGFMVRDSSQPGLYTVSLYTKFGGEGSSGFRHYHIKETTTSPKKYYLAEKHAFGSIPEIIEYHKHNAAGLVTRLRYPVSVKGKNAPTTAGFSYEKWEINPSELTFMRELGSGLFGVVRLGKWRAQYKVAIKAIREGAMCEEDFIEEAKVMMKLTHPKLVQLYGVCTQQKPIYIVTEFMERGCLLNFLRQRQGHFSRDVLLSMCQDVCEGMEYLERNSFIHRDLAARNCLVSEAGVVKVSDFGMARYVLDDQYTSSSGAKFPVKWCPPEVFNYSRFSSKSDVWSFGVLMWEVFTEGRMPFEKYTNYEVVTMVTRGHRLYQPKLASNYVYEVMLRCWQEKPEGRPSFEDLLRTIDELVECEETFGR

SYK, construct: Full length, human (from UniProt P43405)
relative phosphorylation
Conditions | at +1 | at +2 | at +3 | at +4 | at +5 | at -1 | at -2 | at -3 | at -4 | at -5
A fixed | 0.893 | 0.772 | 0.955 | 0.937 | 0.988 | 0.68 | 0.908 | 0.734 | 1.07 | 0.954
D fixed | 1.01 | 1.13 | 0.812 | 1.23 | 1.14 | 4.23 | 2.04 | 2.29 | 1.89 | 1.54
E fixed | 4.05 | 1.74 | 0.941 | 1.39 | 1.2 | 3.04 | 2.21 | 2.61 | 1.96 | 1.49
F fixed | 0.838 | 1.27 | 1.12 | 1.09 | 1 | 0.665 | 0.675 | 0.914 | 1.07 | 1.02
G fixed | 0.363 | 0.78 | 1.2 | 0.965 | 0.96 | 0.379 | 1.04 | 0.896 | 0.964 | 1.03
H fixed | 0.665 | 0.752 | 0.813 | 0.988 | 0.919 | 0.673 | 0.863 | 0.873 | 0.769 | 0.933
I fixed | 1.22 | 1.02 | 1.51 | 0.751 | 0.826 | 1.17 | 0.766 | 0.689 | 0.773 | 0.949
K fixed | 0.25 | 0.588 | 0.584 | 0.875 | 0.916 | 0.204 | 0.46 | 0.459 | 0.593 | 0.681
L fixed | 0.86 | 0.929 | 1.02 | 0.802 | 0.966 | 0.912 | 0.837 | 0.805 | 0.99 | 1.04
M fixed | 0.907 | 0.965 | 0.924 | 1.1 | 0.944 | 0.725 | 0.728 | 0.758 | 0.818 | 0.944
N fixed | 0.505 | 1.11 | 0.771 | 0.896 | 1.03 | 1.02 | 1.21 | 1.26 | 0.868 | 1.13
P fixed | 0.288 | 0.669 | 1.67 | 1.08 | 1.27 | 0.672 | 1.03 | 0.868 | 1.08 | 0.966
Q fixed | 1.1 | 0.972 | 0.761 | 1.11 | 0.983 | 0.674 | 1.13 | 0.864 | 1.11 | 1.08
R fixed | 0.302 | 0.74 | 0.619 | 0.856 | 0.926 | 0.219 | 0.535 | 0.523 | 0.641 | 0.716
S fixed | 1.1 | 1.01 | 0.892 | 0.97 | 0.965 | 0.587 | 1.1 | 0.915 | 0.758 | 0.895
T fixed | 1.23 | 1.02 | 0.907 | 0.932 | 1.1 | 0.779 | 0.832 | 0.885 | 0.651 | 0.725
V fixed | 1.47 | 0.978 | 1.4 | 0.874 | 0.89 | 0.935 | 0.857 | 0.703 | 0.811 | 0.772
W fixed | 0.951 | 1.56 | 1.1 | 1.14 | 0.961 | 0.44 | 0.771 | 0.948 | 1.19 | 1.14
pThr fixed | 3.24 | 2.33 | 0.946 | 1.54 | 1.38 | 6.21 | 3.86 | 2.93 | 2.36 | 1.85
pTyr fixed | 6.41 | 3.62 | 1.53 | 1.73 | 1.32 | 4.49 | 2.56 | 3.83 | 2.99 | 2.2

TEC, construct: Full length, human (from UniProt P42680)
relative phosphorylation
Conditions | at +1 | at +2 | at +3 | at +4 | at +5 | at -1 | at -2 | at -3 | at -4 | at -5
A fixed | 1.7 | 0.954 | 0.562 | 0.694 | 0.847 | 0.4 | 1.06 | 0.921 | 1.1 | 0.884
D fixed | 0.761 | 0.712 | 0.353 | 0.726 | 0.87 | 0.463 | 1.44 | 1.42 | 1.41 | 1.26
E fixed | 2.13 | 0.838 | 0.301 | 0.674 | 0.934 | 0.454 | 1.82 | 1.65 | 1.51 | 1.06
F fixed | 0.677 | 1.07 | 1.65 | 1.12 | 1.11 | 1.33 | 0.585 | 1.32 | 0.973 | 0.94
G fixed | 0.565 | 0.515 | 0.568 | 0.821 | 0.921 | 0.263 | 1.11 | 0.917 | 1.03 | 1.02
H fixed | 0.582 | 1.04 | 1.2 | 1.55 | 1.24 | 0.555 | 1.04 | 0.944 | 0.967 | 1.13
I fixed | 1.21 | 0.776 | 1.75 | 0.789 | 0.637 | 5.08 | 0.736 | 0.746 | 0.857 | 0.79
K fixed | 0.295 | 0.932 | 0.78 | 1.23 | 1.23 | 0.279 | 0.915 | 0.682 | 0.924 | 1.06
L fixed | 0.935 | 0.918 | 1.4 | 0.889 | 0.838 | 2.88 | 0.9 | 0.814 | 0.955 | 0.921
M fixed | 1.58 | 0.86 | 1.25 | 0.98 | 0.956 | 1.26 | 0.806 | 0.932 | 0.945 | 1.01
N fixed | 0.466 | 1.2 | 0.692 | 0.896 | 1.01 | 0.433 | 1.19 | 1.25 | 1.01 | 1.21
P fixed | 0.143 | 0.67 | 0.721 | 0.986 | 1.07 | 0.38 | 1.13 | 0.962 | 0.989 | 0.949
Q fixed | 1.33 | 1.07 | 0.643 | 1.05 | 1.03 | 0.441 | 1.22 | 0.967 | 1.28 | 1.2
R fixed | 0.413 | 1.66 | 1.32 | 1.61 | 1.36 | 0.274 | 0.882 | 0.773 | 0.891 | 1.15
S fixed | 1.22 | 1.31 | 0.67 | 0.871 | 0.997 | 0.409 | 0.942 | 1.1 | 0.771 | 0.919
T fixed | 1.05 | 1.13 | 0.702 | 0.817 | 0.924 | 0.801 | 0.856 | 0.78 | 0.626 | 0.754
V fixed | 1.57 | 1.03 | 1.26 | 0.785 | 0.656 | 1.7 | 0.782 | 0.775 | 0.785 | 0.887
W fixed | 1.38 | 1.31 | 2.18 | 1.51 | 1.37 | 0.596 | 0.589 | 1.05 | 0.981 | 0.856
pThr fixed | 1.91 | 1.66 | 0.298 | 0.525 | 0.563 | 0.786 | 1.26 | 0.929 | 1.03 | 0.999
pTyr fixed | 1.08 | 1.3 | 0.4 | 0.683 | 0.779 | 2.06 | 0.955 | 1.08 | 1.02 | 0.894
